Source: paper PMC5542768, “Structural insight into the activation of a class B G-protein-coupled receptor by peptide hormones in live human cells” (eLife, 2017)
Non-standard residues stand in square brackets, D forms with d. No end group written: not given here. *: point of attachment. Nle = CCCC[C@H](N)C(=O)O; ClAc = O=C(CCl)*

Biological target: T1, CRF1R (Rattus norvegicus, UniProt P35353)
T1 construct: all our experimental data are obtained from the intact full-length, fully glycosylated receptor at the membrane of the live cell; expressed in transfected cells; host or cells: HEK293 (transient co-transfection with CRE-luciferase reporter and Renilla plasmid)
T1 sequence (P35353 24-415): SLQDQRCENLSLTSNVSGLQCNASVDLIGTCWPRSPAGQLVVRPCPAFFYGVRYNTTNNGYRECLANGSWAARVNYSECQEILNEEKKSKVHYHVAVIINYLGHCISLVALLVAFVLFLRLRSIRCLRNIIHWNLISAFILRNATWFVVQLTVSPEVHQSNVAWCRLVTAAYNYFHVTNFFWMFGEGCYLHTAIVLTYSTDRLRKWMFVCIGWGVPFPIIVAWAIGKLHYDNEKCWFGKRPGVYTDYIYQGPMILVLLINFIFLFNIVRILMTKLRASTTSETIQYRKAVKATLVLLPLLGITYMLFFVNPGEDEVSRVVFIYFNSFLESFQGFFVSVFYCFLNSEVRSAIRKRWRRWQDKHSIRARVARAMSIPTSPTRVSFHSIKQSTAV
Experiment: cAMP accumulation assay via luciferase reporter (ligand alone)
Format: cell-based
Conditions: 100 nM peptide; normalized to either Ucn1 or CRF; HEK293; mean ± s.e.m., at least three independent experiments, each in triplicate
Text: Figure 1. Photo-crosslinking mapping of CRF1R to determine footprints of agonists and antagonists. (A) Sequence alignment of CRF1R peptide ligands. The classification into N-terminus, C-terminus and helical connector is adopted from [Beyermann et al. (2000]). […] In ^dFXCRF(12-41), substitutions of the two native Met residues to Nle and the N-terminal D-amino acid to enhance its stability and potency ([Rivier and Rivier, 2014]). […] The assay measures cAMP accumulation in live HEK293 cells stimulated with serial dilutions of each ligand via a luciferase reporter. Plots are representative mean ± s.e.m. of at least three independent experiments, each run in triplicates. (B) CRF1R activation elicited by each of the ligands used in this study. […] (E) Photo-crosslinking experiments. Transiently transfected 293T cells expressing each Azi-CRF1R mutant (residues replaced by Azi are indicated in the upper row) were incubated with each of the five peptide ligands indicated in the right column, followed by UV irradiation (365 nm). […] To obtain sharper bands, samples were deglycosylated by PNGaseF. The subdivision of transmembrane helices and ECLs is based on the crystal structure of the CRF1R TMD ([Hollenstein et al., 2013]). […] DOI: http://dx.doi.org/10.7554/eLife.27711.002 Figure 1—source data 1. Numerical values of cAMP accumulation assay. The assay measures cAMP accumulation in live HEK293 cells stimulated with serial dilutions of each ligand via a luciferase reporter. Raw luminescence data of the firefly reporter luciferase were normalized to the Renilla control and to 100% activation of agonists. At least three independent experiments were performed per ligand, and each experiment was run in triplicate. Values in the table represent a single measurement. Mean ± s.e.m. of triplicates for one representative experiment are reported in Figure 1B–D. DOI: http://dx.doi.org/10.7554/eLife.27711.003 Figure 1—source data 2. Numerical values of whole-cell ELISA of HA-Azi-CRF1R mutants. Related to Figure 1—figure supplement 1. The absorption was measured at 492 nm. Each data point was obtained as mean of three independent experiments, each performed in triplicate. Mean ± s.e.m. of the means of the triplicates are plotted in Figure 1—figure supplement 1B. DOI: http://dx.doi.org/10.7554/eLife.27711.004 Figure 1—figure supplement 1. Expression profiles of a subset of Azi-CRF1R mutants. […] (A) Whole-cell lysates of 293T cells transiently expressing each Azi-CRF1R mutant were resolved on 10% SDS-PAGE and analyzed by Western blotting using an M2 anti-FLAG-HRP antibody. The Azi mutation site is indicated in the top row. […] (B) Whole-cell ELISA of HA-Azi-CRF1R mutants. The absorptions at 492 nm (OD492) are shown as mean ± s.e.m. obtained from three independent experiments each performed in triplicates and normalized to wild type (wt). The positions replaced by Azi are identical to (A). DOI: http://dx.doi.org/10.7554/eLife.27711.005 [drawing 1]
The day prior to transfection, 6 × 10^6 HEK293 cells were seeded in 10 cm dishes. Cells were co-transfected with 0.5 µg of plasmid encoding the wild-type CRF1R gene under control of a PGK promoter, 5 µg of the reporter construct (humanized PpyRE9 [[Branchini et al., 2010]] firefly luciferase gene driven by a cAMP-responsive element and followed by a PEST sequence), and 0.5 µg of plasmid encoding Renilla luciferase driven by a CMV promoter. Transfection was performed using PEI max as described above. The following day, cells were trypsinized and transferred into a 96-well plate at a density of 180,000 cells per well.

| Substance | Receptor activation at 100 nM [%] |
| --- | --- |
| CRF(9-41): 33-mer antagonist obtained by N-terminal truncation of the first eight residues of CRF (DLTFHLLREVLEMARAEQLAQQAHSNRKLMEII; ends and bridges not checked; UniProt P06850 162-194, looked up, fragment) | 4.03 ± 1.27 |
| Ucn1(8-40): 33-mer N-truncated Ucn1 antagonist, introduced in this work for the first time (DLTFHLLRTLLELARTQSQRERAEQNRIIFDSV; ends and bridges not checked; UniProt P55089 90-122, looked up, fragment) | 8.20 ± 2.76 |
| [DPhe^12,Nle^21,38]-CRF(12-41) [^dFXCRF(12-41)] | 0.53 ± 0.47 |

Same assay, conditions: Figure 1B legend; HEK293, luciferase reporter

| Substance | CRF1R activation / residual activity up to the maximal tested concentration of 100 nM |
| --- | --- |
| CRF(9-41): 33-mer antagonist obtained by N-terminal truncation of the first eight residues of CRF (DLTFHLLREVLEMARAEQLAQQAHSNRKLMEII; ends and bridges not checked; UniProt P06850 162-194, looked up, fragment) | < 10% |
| Ucn1(8-40): 33-mer N-truncated Ucn1 antagonist, introduced in this work for the first time (DLTFHLLRTLLELARTQSQRERAEQNRIIFDSV; ends and bridges not checked; UniProt P55089 90-122, looked up, fragment) | < 10% |
| [DPhe^12,Nle^21,38]-CRF(12-41) [^dFXCRF(12-41)] | did not elicit any significant receptor activation |

Same assay, conditions: HEK293, luciferase reporter; agrees with literature data

| Substance | EC50 (Figure 1B legend) |
| --- | --- |
| Urocortin I (DNPSLSIDLTFHLLRTLLELARTQSQRERAEQNRIIFDSVGK) [Ucn1, 40-mer endogenous peptide agonist of CRF1R] | Sub-nanomolar |
| corticotropin-releasing factor (SEEPPISLDLTFHLLREVLEMARAEQLAQQAHSNRKLMEIIGK) [CRF, 41-mer endogenous peptide agonist of CRF1R] | Sub-nanomolar |

Same assay, conditions: cAMP level via luciferase reporter, transiently transfected HEK293 cells, 3 hr stimulation at 37°C; mean ± s.e.m., at least three independent experiments, each in triplicate

| Substance | EC50 [nM] |
| --- | --- |
| SEEPPISLDLTFHLLREVLE[Nle]ARAEQLAQQAHK(ClAc)NRKL[Nle]EII-NH2 [[Lys(ClAc)^33]- ^XCRF] | 0.04 |
| SEEPPISLDLTFHLLRK(ClAc)VLE[Nle]ARAEQLAQQAHSNRKL[Nle]EII-NH2 [[Lys(ClAc)^17]- ^XCRF] | 0.08 |
| SEEPPISLDLTFHLK(ClAc)REVLE[Nle]ARAEQLAQQAHSNRKL[Nle]EII-NH2 [[Lys(ClAc)^15]- ^XCRF] | 0.08 ± 0.22 |

Biological target: corticotropin-releasing factor receptor type 1 (CRF1R), wild type (rat) (UniProt P35353)
Experiment: not given
Conditions: not given

| Substance | EC50 of cAMP accumulation (CRE-luciferase reporter) in HEK293 cells transfected with CRF1R [nM] | Receptor activation at 100 nM [%] (cAMP accumulation, normalized to Ucn1 or CRF) |
| --- | --- | --- |
| Urocortin I (Ucn1) (from UniProt P55089 83-124) (peptide) | 0.16 | – |
| [Lys(ClAc)^18]-^dFXCRF(12-41) (peptide) | – | 0.59 |
| [Lys(ClAc)^14]-^dFXCRF(12-41) (peptide) | – | 1.49 |
| [Lys(ClAc)^13]-^XCRF (peptide) | 0.03 | – |
| [Lys(ClAc)^33]-^dFXCRF(12-41) (peptide) | – | 1.85 |
| [Lys(ClAc)^13]-^dFXCRF(12-41) (peptide) | – | 2.41 |
| [Lys(ClAc)^17]-^XCRF (peptide) | 0.08 | – |
| [Lys(ClAc)^16]-^XCRF (peptide) | 0.2 | – |
| [Lys(ClAc)^31]-^dFXCRF(12-41) (peptide) | – | 0.52 |
| [Lys(ClAc)^15]-^dFXCRF(12-41) (peptide) | – | 0.39 |
| corticotropin-releasing factor (CRF) (from UniProt P06850 154-196) (peptide) | 0.11 | – |
| [ClAc^0]-^dFXCRF(12-41) (peptide) | – | 0.62 |
| [Lys(ClAc)^31]-^XCRF (peptide) | 0.06 | – |
| CRF(9-41) (peptide) | – | 4.03 |
| [Lys(ClAc)^16]-^dFXCRF(12-41) (peptide) | – | 1.06 |
| [Lys(ClAc)^18]-^XCRF (peptide) | 0.03 | – |
| [DPhe^12,Nle^21,38]-CRF(12-41) (peptide) | – | 0.53 |
| Ucn1(8-40) (peptide) | – | 8.2 |
| [Lys(ClAc)^33]-^XCRF (peptide) | 0.04 | – |
| [Lys(ClAc)^15]-^XCRF (peptide) | 0.08 | – |
| [Lys(ClAc)^17]-^dFXCRF(12-41) (peptide) | – | 0.31 |

Test system: CRF1R
Experiment: not given
Conditions: ref Gulyas et al., 1995; cited from earlier work

| Substance | Binding affinity of CRF1R relative to CRF (lower) |
| --- | --- |
| [DPhe^12,Nle^21,38]-CRF(12-41) [^dFXCRF(12-41)] | ~ 10 fold |
